Experimental findings from publication PMC3026963 (The Biochemical journal, 2010) are described below.

This assay addresses protein kinase CK2 catalytic subunit α (human, UniProt P68400 1-391). As to the kind of experiment: SEC.

protein kinase CK2 catalytic subunit α, sequence (P68400 whole entry): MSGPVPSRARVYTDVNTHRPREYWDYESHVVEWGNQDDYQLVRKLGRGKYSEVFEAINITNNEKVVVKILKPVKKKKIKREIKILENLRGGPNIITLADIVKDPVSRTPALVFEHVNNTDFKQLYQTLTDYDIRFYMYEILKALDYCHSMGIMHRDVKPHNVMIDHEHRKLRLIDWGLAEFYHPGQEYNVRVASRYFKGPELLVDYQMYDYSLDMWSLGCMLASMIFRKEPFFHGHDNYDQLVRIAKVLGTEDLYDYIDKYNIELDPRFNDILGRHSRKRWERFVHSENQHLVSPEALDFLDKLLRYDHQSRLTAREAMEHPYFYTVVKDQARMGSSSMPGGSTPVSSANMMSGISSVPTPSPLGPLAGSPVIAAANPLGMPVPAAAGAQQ

B1: protein kinase CK2 non-catalytic subunit β (natural protein)
chain: not shown
In the case of B1, the binding result is listed as “binds”.
